Assay results published in the RNAGym collection of RNA variant scans (doi:10.1073/pnas.2313332121).
Variants at the floor of the assay were thinned out.

B1: TPR 5TU (parent)
chain: GGAUCUUCUCGAUCUAACAAAAAAGACAAAUCUGCCACAAAGCUUGAGAGCAUCUUCGGAUGCAGAGGCGGCAGCCUUCGGUGGCGCGAUAGCGCCAACGUUCUCAACUAUGACACGCAAAACGCGUGCUCCGUUGAAUGGAGUUUAUCAUG

Variants of: B1
Experiment: polymerase ribozyme fitness, log enrichment relative to wild type (log ratio); higher = more active; in vitro selection for triplet polymerase activity
Procedure, shortened: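 A single round of triplicate in vitro selection, including frozen incubation at −7 °C, was applied to PCR-built, transcribed mutant libraries of each subunit of a heterodimeric triplet polymerase ribozyme. Illumina sequencing of input and output libraries retained genotypes with ≥10 input reads and ≥1 read per output. Fitness is the base-2 logarithm of genotype enrichment divided by wild-type enrichment, from inverse-variance-weighted replicate averages.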

Point of comparison: C14G C57A C85U C99A C123U, “polymerase ribozyme fitness (log ratio)” value -3.49. Against it:
- C14G U127G — lower, -4.18
- C14G U31A G68A G86A A91G C108A C118G — lower, ≤ -4.2
- C14U A138C — lower, -3.75
- C14G C57A G92A C96U A107C G124U — lower, ≤ -4.2
- C14G G84A — higher, -2.16
- C14U A21G A49G — higher, -2.56
- C14G C32U G48A C103U U127C — lower, ≤ -4.2
- C14G G88C C125G — lower, -4.08
- C14G G86C — lower, ≤ -4.2
- C14U A52C U56A A97U A98U — lower, -4.07
- C14U C32G U33G A47U U53A G74A C95G A106G U135A — lower, ≤ -4.2
- C14U A17G G70C G80A A137U — lower, ≤ -4.2
- C14G G50U C95U C96U A115G — lower, -4.1
- C14U A16C C51U A52G C93U C116A A121C — higher, -1.81
- C14G A52G C75U C85U U144C — lower, -3.71
- C14G A91U A97G — lower, -3.96
- C14G G25C A47U G50A C93A U102A G124C — lower, ≤ -4.2
- C14G A49G — higher, -2.92
- C14G C87G A107G — lower, ≤ -4.2
- C14U C85U — higher, -1.65
- C14G C79A C93G C96A — lower, ≤ -4.2
- C14G A106C C118A C123U — lower, -4.16
- C14U C27G G94C G133U A150G — lower, ≤ -4.2
- C14G C43A G88U A110U G112C U127G — lower, ≤ -4.2
- C14U A19U C87U C99A — lower, -3.91
- C14G C18U G92C — higher, -2.89
- C14G C131U — higher, -1.27
- C14G C38A A60G U77A U78C C87G C125A U139G — lower, ≤ -4.2
- C14U A47C G50A G70A U77C C85A C125G C132A A142U — lower, ≤ -4.2
- C14G U61A C87U C95G U135G A142C — lower, ≤ -4.2
- C14U A28U C51G A97G — lower, ≤ -4.2
- C14G U102A — lower, -4.05
- C14U A16C C57G G83U C85U A107G G140C A142C — lower, ≤ -4.2
- C14G U15G C18G U55G G68A — lower, ≤ -4.2
- C14G G92U — higher, -2.61
- C14U A73U U78G C87G A122U C123U — lower, ≤ -4.2
- C14G U15G A19C A22C A41G G58C C93U — lower, -3.91
- C14U C72A C85G G133U — lower, ≤ -4.2
- C14G C95G C96G — lower, -4.07
- C14G G88U C93A C116G U144A — lower, ≤ -4.2
- C14G G59A C87U — lower, -3.82
- C14G C38U G68U G80U A91G C103A U139C — lower, ≤ -4.2
- C14U A29U C54G G83U G84U C105G U151G — lower, ≤ -4.2
- C14U C76A C87U — the same, -3.49
- C14U C54U C57U C72U G83A — lower, -4.05
- C14G C35A A60G U130C U134C — lower, ≤ -4.2
- C14U A23C — lower, ≤ -4.2
- C14G C51U U61A — lower, -4.06
- C14G C87U C149A — lower, ≤ -4.2
- C14U A52U C54A G83U C96G A98U — lower, -3.86
- C14U A122G — higher, -1.71
- C14G C85U — higher, -2.1
- C14U C85A G140A — lower, ≤ -4.2
- C14G A89U C99A A107C — lower, ≤ -4.2
- C14U C54U G84A G133U — lower, -3.87
- C14G A91U C93G C125A — lower, ≤ -4.2
- C14G C36U U45G G59A C95U A97G A98U C125A U139G — lower, -4.03
- C14G C35U C95U U101A — lower, -3.82
- C14G C85A C95G C103U U146A — lower, ≤ -4.2
- C14U A17U A19C U44A G68A A73G G86U C96U C149G — lower, ≤ -4.2
- C14G C27U G48A C57A A60U G88C A106U — lower, ≤ -4.2
- C14G U15C G84U — higher, -1.26
- C14G U33C U56A C85A C99G G117U C123U — lower, -3.91
- C14G G83A C96U A110G A142U U148A — lower, ≤ -4.2
- C14U C93A — within 0.2 log units, -3.4
- C14U A19U U55A — higher, -1.9
- C14G G59C C69A A142G — lower, ≤ -4.2
- C14G C27G G94A — lower, ≤ -4.2
- C14G U77G A97U U111C — lower, -4.01
- C14U C57A A89G C96U U101A G136U — lower, ≤ -4.2
- C14G G25U C36A U55G G65C C75U G141C — lower, ≤ -4.2
- C14U C54U C87A A89G C96U A121U A142C — lower, ≤ -4.2
- C14G A137U — lower, ≤ -4.2
- C14U C43U C72A G84A C93G C95G A142G U144A — lower, ≤ -4.2
- C14G U82C — within 0.2 log units, -3.65
- C14U A28U A122G G141C — lower, -4.15
- C14G C18G U82G G84C — lower, ≤ -4.2
- C14U A40G U56A G59C C76U A121U — lower, -4.02
- C14U A17U A24G A41C C51U U56A C93A A115C — lower, ≤ -4.2
- C14U A64G A91U C105G — lower, ≤ -4.2
- C14U A24C U53A G67U C108U A150G — lower, ≤ -4.2
- C14G A73G G88C A98U C99G — lower, ≤ -4.2
